These results are taken from paper PMC8367650.

For the test, the target named is IdeS FabRICATOR enzyme. The experiment in a line: SEC. In general terms: SEC sorts molecules by how far they enter the pores of the column.

For the substance IdeS FabRICATOR enzyme, the stoichiometry N was determined as 2.

What is called stoichiometry N is a count of units in the complex or per binding partner.
